Reference: US6730480B1, “Sphingosine kinase enzyme” (Johnson & Johnson Pharmaceutical Research and Development …, priority 1999, dated 2004)
Where a chain is given by its changes, count along the chain named.

Assays:
[1] = test system: sphingosine kinase activity in HEK293 cells; assay: Transient expression of hSK and TNFα stimulation of sphingosine kinase activity in HEK293 cells; assay type: cell-based, human
Method: (§1) Sphingosine kinase activity was routinely determined using D-erythro-sphingosine and [γ^32P]ATP as substrates, essentially as previously described (Olivera et al., 1998) with some modifications. Briefly, assays were performed by incubating samples at 37° C. for 30 min with sphingosine (100 μM stock dissolved in 5% Triton X-100) and [γ-^32P]ATP (1 mM; 10 μCi/ml) in assay buffer containing 100 mM Tris/HCl (pH 7.4), 10 mM MgCl2 10% (v/v) glycerol, 1 mM dithiothreitol, 1 mM EGTA, 1 mM Na3VO4, 15 mM NaF, 0.5 mM 4-deoxypyridoxine in a total volume of 100 μl. Reactions were terminated and sphingosine-1-phosphate extracted by the addition of 700 μl of chloroform/methanol/HCl (100:200:1. v/v), followed by vigorous mixing, addition of 200 μp of chloroform and 200 μl of 2 M KCl, and phase separation by centrifugation. The labeled S1P in the organic phase was isolated by TLC on Silica Gel 60 with 1-butanol/ethanol/acetic acid/water (8:2:1:2, v/v) and quantitated by phosphorimager (Molecular Dynamics. Sunnyvale, Calif.). One unit (U) of activity is defined as 1pmol of S1P formed per minute.
For mammalian cell expression the hSK cDNA was FLAG epitope tagged at the 3′-end by PFU polymerase PCR with oligonucleotide primers T7 and 5′-[…]-3′ [SEQ ID NO:5]. […] The orientation was determined by restriction analysis and sequencing verified the integrity of the hSK-FLAG cDNA sequence. […]

[2] = test system: sphingosine kinase activity in HUVEC; assay: TNFα stimulation of sphingosine kinase activity in HUVEC extracts; assay type: cell-based, human; details: TNFα treated HUVEC (untreated HUVEC 78)
Method: as §1
Human umbilical vein endothelial cells (HUVEC) were isolated as previously described (Wall et al., 1978) and cultured on gelatin-coated culture flasks in medium M199 with Earle's salts supplemented with 20% fetal calf serum, 25 μg/ml endothelial growth supplement (Collaborative Research) and 25 μg/ml heparin. […]

[3] = substrate: CCCCCCCCCCCCC/C=C/[C@@H](O)[C@@H](N)CO; assay: Sphingosine kinase enzyme assay with native SK purified from human placenta; assay type: biochemical; details: other: Native SK, 37.0 °C
Method: The substrates examined were added to a final concentration of 100 μM in 0.25% (w/v) Triton X-100, and assayed under the standard assay conditions outlined earlier.
Substrate kinetics were determined by supplying substrates over the concentration range of 0.5 to 200 μM for sphingosine analogues, and 5 to 1000 μM for ATP. Inhibition kinetics were determined by the use of inhibitors over a concentration range of 2 to 50 μM (Table 5). In both cases the data were analysed by non-linear regression.
The effect of metal ions on the activity of the native and recombinant sphingosine kinases were determined by assaying the activity under standard conditions in the presence of various metal ions or EDTA at 10 mM.

[4] = assay type: physicochemical, human; details: pH range 4 to 11, 50 mM buffers, 37° C.
Method: The effect of pH on the activity of the isolated sphingosine kinases was determined over the pH range 4.0 to 11.0 in 50 mM buffers (sodium acetate, pH 4.0-5.0; Mes, pH 6.0-7.0; Hepes, pH 7.0-8.2; Tris/HCl, pH 8.2-10.0: Caps, pH 10.0-11.0) at 37° C. pH stability was determined by assaying the residual activity after pre-incubation of the enzymes in the same buffers for 5 h at 4° C. Similarly, thermal stabilities were determined by assaying the residual activity after pre-incubation of the enzymes at various temperatures (4-80° C.) for 30 min at pH 7.4 (50 mM Tris/HCl containing 10% glycerol, 0.5 M NaCl and 0.05% Triton X-100). Substrate kinetics were analysed using Michaelis-Menten kinetics with a weighted non-linear regression program (Easterby, 1996). Since sphingosine and its analogues were added to the enzyme assays in mixed micelles with Triton X-100, where they exibit surface dilution kinetics (Buehrer and Bell. 1992), all K, and KC values obtained for these molecules were expressed as mol % of Triton X-100, rather than as bulk solution concentrations. […]
Thermal stabilities of the native and recombinant sphingosine kinases were determined by assaying the residual activity remaining after preincubation of the enzymes at various temperatures (4 to 80° C.) for 30 min at pH 7.4 (50 mM Tris/HCl containing 10% glycerol, 0.5M NaCl and 0.05% Triton X-100). […]

[5] = substrate: CCCCCCCCCCCCC/C=C/[C@@H](O)[C@@H](N)CO; assay: Sphingosine kinase enzyme assay with recombinant human SK expressed in E. coli; assay type: biochemical; details: other: Recombinant SK
[6] = sphingosine supplied as a sphingosine-BSA complex
[7] = substrate kinetics, bulk solution concentration

TNFα
Increase in sphingosine kinase activity after TNFα treatment ([1]; hSK-transfected HEK293 cells, TNFα 1 ng/ml, 10 min): approximately 2 fold
Total sphingosine kinase activity in cell extract [2]: 136 U/mg proteins

B1: native sphingosine kinase (human placenta SK1) (Homo sapiens) (protein)
chain: MDPAGGPRGVLPRPCRVLVLLNPRGGKGKALQLFRSHVQPLLAEAEISFTLMLTERRNHARELVRSEELGRWDALVVMSGDGLMHEVVNGLMERPDWETAIQKPLCSLPAGSGNALAASLNHYAGYEQVTNEDLLTNCTLLLCRRLLSPMNLLSLHTASGLRLFSVLSLAWGFIADVDLESEKYRRLGEMRFTLGTFLRLAALRTYRGRLAYLPVGRVGSKTPASPVVVQQGPVDAHLVPLEEPVPSHWTVVPDEDFVLVLALLHSHLGSEMFAAPMGRCAAGVMHLFYVRAGVSRAMLLRLFLAMEKGRHMEYECPYLVYVPVVAFRLEPKDGKGVFAVDGELMVSEAVQGQVHPNYFWMVSGCVEPPPSWKPQQMPPPEEPL
notes: from tissue; host or cells: human placenta
kcat [3, 6]: 28 s⁻¹
Km [3, 7]: 14 ± 2 µM
kcat [3, 7]: 50 s⁻¹
kcat/Km [3, 7]: 3.6e+06 M⁻¹ s⁻¹

B2: recombinant sphingosine kinase: hSK expressed as GST fusion in E. coli BL21, thrombin-cleaved and purified (protein)
chain: B1 chain with V337M
pH of maximum activity [4]: 7.4

B3: native sphingosine kinase: sphingosine kinase SK1 purified to homogeneity from human placenta (protein, UniProt Q9NYA1 1-384, looked up)
Sphingosine kinase 1: B1 chain
pH of maximum activity [4]: 7.4

B4: recombinant human sphingosine kinase (Homo sapiens) (protein)
chain: B1 chain
notes: The full length SPHK cDNA cloned into pGEX4T2 was transformed into E. coli BL21; GST (N, cleaved yes); made in house; host or cells: E. coli BL21
kcat [5, 6]: 39 s⁻¹
Km [5, 7]: 12 ± 3 µM
kcat [5, 7]: 85 s⁻¹
kcat/Km [5, 7]: 7.1e+06 M⁻¹ s⁻¹

B5: hSK: human sphingosine kinase encoded by the cloned cDNA, SEQ ID NO:2 (protein)
chain: B1 chain with V337M
Increase in sphingosine kinase activity on transient expression ([1]; HEK293 cells, pcDNA3-hSK, versus untransfected or empty vector): 3200 fold
